How the values were obtained:
[1] = target: T1, heat shock cognate protein 70 (Hsc70), recombinant (human, UniProt P11142 1-646); assay: SPR; Biacore 8K; Hsc70 immobilised on a CM5 chip; GDAz-3 at 1 uM preincubated with GPX4 (ternary-complex measurement); PBS pH 7.4, 30 uL/min, 25 °C, 120 s association and 120 s dissociation; details: both partners purified
T1 construct: Hsc70 (HSPA8), human, bought recombinant protein; see the vendor's data sheet for HY-P73915A; also called HSPA8; heat shock cognate 70 protein; source: bought: MedChemExpress, #HY-P73915A (recombinant protein)

[2] = target: T1, heat shock cognate protein 70 (Hsc70), …; assay: SPR; Biacore 8K; human Hsc70 immobilised on a CM5 chip; GPX4 without compound (binary complex); PBS pH 7.4 running buffer, 30 uL/min, 25 °C, 120 s association and 120 s dissociation; details: both partners purified

T1 sequence (P11142 whole entry): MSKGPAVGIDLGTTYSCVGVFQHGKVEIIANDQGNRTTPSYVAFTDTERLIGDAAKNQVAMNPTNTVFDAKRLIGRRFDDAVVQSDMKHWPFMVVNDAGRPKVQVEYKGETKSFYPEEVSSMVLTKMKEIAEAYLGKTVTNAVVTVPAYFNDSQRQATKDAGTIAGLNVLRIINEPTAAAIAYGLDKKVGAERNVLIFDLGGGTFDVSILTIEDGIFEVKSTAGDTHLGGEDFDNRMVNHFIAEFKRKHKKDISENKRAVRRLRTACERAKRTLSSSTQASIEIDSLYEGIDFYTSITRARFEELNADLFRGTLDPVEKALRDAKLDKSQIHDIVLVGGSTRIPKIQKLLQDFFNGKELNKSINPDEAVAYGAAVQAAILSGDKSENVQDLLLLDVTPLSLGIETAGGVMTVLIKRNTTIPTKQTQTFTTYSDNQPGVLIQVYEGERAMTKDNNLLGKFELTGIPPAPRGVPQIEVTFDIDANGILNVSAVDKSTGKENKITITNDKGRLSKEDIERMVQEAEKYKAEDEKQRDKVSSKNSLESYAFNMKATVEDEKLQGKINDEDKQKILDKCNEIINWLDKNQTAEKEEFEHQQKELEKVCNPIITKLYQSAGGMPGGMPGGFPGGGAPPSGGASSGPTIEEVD

B1: glutathione peroxidase 4 (GPX4), recombinant (enzyme)
chain: MCASRDDWRCARSMHEFSAKDIDGHMVNLDKYRGFVCIVTNVASQUGKTEVNYTQLVDLHARYAECGLRILAFPCNQFGKQEPGSNEEIKEFAAGYNVKFDMFSKICVNGDDAHPLWKWMKIQPKGKGILGNAIKWNFTKFLIDKNGCVVKRYGPMEEPLVIEKDLPHYF
modifications: Limits are by convention: cytosolic isoform, starting at precursor Met28 (paper numbering + 27, so Sec46 = U73; matches the start of 6HKQ). The commercial protein's limits and tag are not stated. …
- KD with GDAz-3 [1]: 23.9 nM
- Kd [2]: 100 nM
